# Test results taken from IntAct's records for PubMed 25083872.
# B1: Vesicle-associated membrane protein-associated protein SCS2 (Saccharomyces cerevisiae), P40075 (parent)
# chain: MSAVEISPDVLVYKSPLTEQSTEYASISNNSDQTIAFKVKTTAPKFYCVRPNAAVVAPGETIQVQVIFLGLTEEPAADFKCRDKFLVITLPSPYDLNGKAVADVWSDLEAEFKQQAISKKIKVKYLISPDVHPAQNQNIQENKETVEPVVQDSEPKEVPAVVNEKEVPAEPETQPPVQVKKEEVPPVVQKTVPHENEKQTSNSTPAPQNQIKEAATVPAENESSSMGIFILVALLILVLGWFYR
# partner: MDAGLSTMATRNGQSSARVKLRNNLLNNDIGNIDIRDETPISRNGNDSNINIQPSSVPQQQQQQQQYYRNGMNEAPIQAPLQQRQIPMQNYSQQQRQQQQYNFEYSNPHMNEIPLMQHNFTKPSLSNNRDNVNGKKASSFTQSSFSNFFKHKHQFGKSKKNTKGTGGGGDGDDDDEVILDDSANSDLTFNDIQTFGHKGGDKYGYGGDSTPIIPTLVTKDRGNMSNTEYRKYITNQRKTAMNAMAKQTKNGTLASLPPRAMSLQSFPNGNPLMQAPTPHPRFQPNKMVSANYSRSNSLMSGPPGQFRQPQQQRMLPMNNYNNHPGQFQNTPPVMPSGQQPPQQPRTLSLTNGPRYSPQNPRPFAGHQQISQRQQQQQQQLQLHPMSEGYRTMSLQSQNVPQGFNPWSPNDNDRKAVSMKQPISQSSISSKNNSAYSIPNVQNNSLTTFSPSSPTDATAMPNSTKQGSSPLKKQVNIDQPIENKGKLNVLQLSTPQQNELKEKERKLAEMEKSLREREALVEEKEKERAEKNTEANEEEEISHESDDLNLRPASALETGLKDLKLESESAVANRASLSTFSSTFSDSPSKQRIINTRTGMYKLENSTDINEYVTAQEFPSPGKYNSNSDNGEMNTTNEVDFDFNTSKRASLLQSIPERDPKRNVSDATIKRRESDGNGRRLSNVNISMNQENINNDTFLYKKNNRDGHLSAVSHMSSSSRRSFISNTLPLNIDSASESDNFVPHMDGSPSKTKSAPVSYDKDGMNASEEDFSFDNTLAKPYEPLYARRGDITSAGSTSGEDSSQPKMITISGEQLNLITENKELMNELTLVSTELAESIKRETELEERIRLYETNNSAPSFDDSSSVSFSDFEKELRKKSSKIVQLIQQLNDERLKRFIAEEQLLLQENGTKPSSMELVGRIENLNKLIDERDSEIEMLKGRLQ
# Variants of: B1
# Conditions: with ym11_yeast ym11, P39523
row,effect of a mutation on the interaction,Variant
1,disrupting interaction strength,MSAVEISPDVLVYKSPLTEQSTEYASISNNSDQTIAFKVKTAAPKFYCVRPNAAVVAPGETIQVQVIFLGLTEEPAADFKCRDKFLVITLPSPYDLNGKAVADVWSDLEAEFKQQAISKKIKVKYLISPDVHPAQNQNIQENKETVEPVVQDSEPKEVPAVVNEKEVPAEPETQPPVQVKKEEVPPVVQKTVPHENEKQTSNSTPAPQNQIKEAATVPAENESSSMGIFILVALLILVLGWFYR [T42A]
